# Assay results taken from patent US20050282743A1, “Molecular interactions in cells” (Arbor Vita Corporation, priority 2001, published 2005).
# T1: GST-MUPP1 PDZ domain 3 (Homo sapiens (Human)), O75970
# T1 chain: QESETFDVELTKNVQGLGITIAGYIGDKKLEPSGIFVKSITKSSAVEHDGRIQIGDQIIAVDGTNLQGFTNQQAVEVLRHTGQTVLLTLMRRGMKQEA
# T2: GST-MUPP1 PDZ domain 9 (Homo sapiens (Human)), O75970
# T2 chain: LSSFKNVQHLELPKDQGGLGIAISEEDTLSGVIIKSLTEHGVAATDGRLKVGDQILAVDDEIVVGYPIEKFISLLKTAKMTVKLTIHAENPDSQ
# T3: GST-KIAA0807(S) PDZ domain 1 (Homo sapiens (Human)), Q6P0Q8
# T3 chain: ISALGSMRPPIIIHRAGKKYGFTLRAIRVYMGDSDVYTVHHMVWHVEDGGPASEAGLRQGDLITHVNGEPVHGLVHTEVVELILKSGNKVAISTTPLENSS
# T4: GST-MUPP1 PDZ domain 7 (Homo sapiens (Human)), O75970
# T4 chain: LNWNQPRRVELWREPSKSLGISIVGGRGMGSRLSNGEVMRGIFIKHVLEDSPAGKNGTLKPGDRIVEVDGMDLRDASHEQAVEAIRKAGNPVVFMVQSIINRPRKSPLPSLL
# T5: GST-FLJ00011 PDZ domain 1 (Homo sapiens (Human)), Q9H5P4
# T5 chain: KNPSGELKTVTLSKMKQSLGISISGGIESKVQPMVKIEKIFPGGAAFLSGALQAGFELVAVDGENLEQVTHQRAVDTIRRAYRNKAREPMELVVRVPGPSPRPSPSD
# T6: GST-APXL-1 PDZ domain 1 (Homo sapiens (Human)), Q13796
# T6 chain: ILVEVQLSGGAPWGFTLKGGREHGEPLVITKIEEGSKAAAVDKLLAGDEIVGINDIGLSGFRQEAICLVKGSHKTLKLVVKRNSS
# T7: GST-MINT1 PDZ domain 2 (Mus musculus (Mouse)), B2RUJ5
# T7 chain: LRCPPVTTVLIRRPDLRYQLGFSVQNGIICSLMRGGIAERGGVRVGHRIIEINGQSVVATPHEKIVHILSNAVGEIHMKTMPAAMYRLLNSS
# T8: GST-KIAA0973 PDZ domain 1 (Homo sapiens (Human)), Q9Y2H9
# T8 chain: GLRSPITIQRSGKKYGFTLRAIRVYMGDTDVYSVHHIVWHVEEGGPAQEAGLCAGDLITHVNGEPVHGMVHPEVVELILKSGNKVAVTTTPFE
# T9: GST-MINT1 PDZ domains 1, 2, Q02410
# T9 chain: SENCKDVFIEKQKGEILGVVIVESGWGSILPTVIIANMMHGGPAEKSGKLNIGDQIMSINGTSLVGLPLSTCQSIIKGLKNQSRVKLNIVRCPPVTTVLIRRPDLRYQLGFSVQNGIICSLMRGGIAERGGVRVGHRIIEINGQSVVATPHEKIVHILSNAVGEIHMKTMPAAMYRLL
# T10: GST-PTPL1 PDZ domain 4 (Homo sapiens (Human)), Q12923
# T10 chain: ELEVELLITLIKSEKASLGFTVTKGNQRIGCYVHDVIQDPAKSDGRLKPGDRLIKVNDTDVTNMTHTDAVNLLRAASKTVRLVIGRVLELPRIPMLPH
# T11: GST-TIP1 PDZ domain 1 (Table 9 insert) (Homo sapiens (Human)), O14907
# T11 chain: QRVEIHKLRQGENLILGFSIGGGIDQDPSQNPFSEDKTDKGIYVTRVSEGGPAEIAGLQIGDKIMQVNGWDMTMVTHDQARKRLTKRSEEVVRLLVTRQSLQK
# T12: GST-KIAA0380 PDZ domain 1 (Homo sapiens (Human)), O15085
# T12 chain: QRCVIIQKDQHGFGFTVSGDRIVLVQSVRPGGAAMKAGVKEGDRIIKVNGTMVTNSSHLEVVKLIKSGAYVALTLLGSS
# T13: GST-INADL PDZ domain 8 (Homo sapiens (Human)), Q8NI35
# T13 chain: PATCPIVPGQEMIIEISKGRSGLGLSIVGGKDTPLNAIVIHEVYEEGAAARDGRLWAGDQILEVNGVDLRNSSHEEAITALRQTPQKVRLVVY
# T14: GST-NeDLG PDZ domains 1, 2, Q92796
# T14 chain: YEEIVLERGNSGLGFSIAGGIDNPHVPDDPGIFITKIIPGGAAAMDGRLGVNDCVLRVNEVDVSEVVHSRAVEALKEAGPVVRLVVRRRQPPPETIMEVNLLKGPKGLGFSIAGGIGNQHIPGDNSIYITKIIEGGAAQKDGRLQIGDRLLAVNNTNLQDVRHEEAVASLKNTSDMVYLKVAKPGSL
# T15: GST-KIAA1634 PDZ domain 2 (Homo sapiens (Human)), Q5TCQ9
# T15 chain: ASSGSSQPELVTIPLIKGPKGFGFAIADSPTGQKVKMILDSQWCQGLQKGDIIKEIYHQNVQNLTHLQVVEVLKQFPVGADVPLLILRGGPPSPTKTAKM
# T16: GST-Outer Membrane PDZ domain 1 (Homo sapiens (Human)), P57105
# T16 chain: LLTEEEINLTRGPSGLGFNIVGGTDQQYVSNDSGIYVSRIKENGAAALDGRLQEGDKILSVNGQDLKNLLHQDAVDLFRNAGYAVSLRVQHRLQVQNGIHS
# T17: GST-KIAA0382 PDZ domain 1 (Canis lupus familiaris (Dog) (Canis familiaris)), A0A8I3
# T17 chain: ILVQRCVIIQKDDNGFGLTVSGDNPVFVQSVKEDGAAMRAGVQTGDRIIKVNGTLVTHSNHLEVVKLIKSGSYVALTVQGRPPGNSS
# T18: GST-MUPP1 PDZ domain 10 (Homo sapiens (Human)), O75970
# T18 chain: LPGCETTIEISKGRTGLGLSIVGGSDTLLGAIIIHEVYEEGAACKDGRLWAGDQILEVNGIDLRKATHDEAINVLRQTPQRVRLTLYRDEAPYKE
# T19: GST-FLJ 10324 PDZ domain 1 [GST: P08515]
# T19 chain: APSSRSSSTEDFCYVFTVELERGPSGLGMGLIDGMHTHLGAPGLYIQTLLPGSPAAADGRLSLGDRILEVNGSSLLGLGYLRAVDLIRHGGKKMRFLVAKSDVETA
# T20: GST-PTPL1 PDZ domain 2 (Homo sapiens (Human)), Q12923
# T20 chain: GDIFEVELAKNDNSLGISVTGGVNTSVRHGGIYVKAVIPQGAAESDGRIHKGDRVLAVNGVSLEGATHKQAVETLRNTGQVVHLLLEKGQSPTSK
# T21: GST-AIPC PDZ domain 1 (Homo sapiens (Human)), O15018
# T21 chain: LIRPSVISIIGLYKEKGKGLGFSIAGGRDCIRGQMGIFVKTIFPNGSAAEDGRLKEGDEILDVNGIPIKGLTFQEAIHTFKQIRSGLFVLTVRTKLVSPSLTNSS
# T22: GST-PDZK1 PDZ domains 2, 3, 4, Q5T2W1
# T22 chain: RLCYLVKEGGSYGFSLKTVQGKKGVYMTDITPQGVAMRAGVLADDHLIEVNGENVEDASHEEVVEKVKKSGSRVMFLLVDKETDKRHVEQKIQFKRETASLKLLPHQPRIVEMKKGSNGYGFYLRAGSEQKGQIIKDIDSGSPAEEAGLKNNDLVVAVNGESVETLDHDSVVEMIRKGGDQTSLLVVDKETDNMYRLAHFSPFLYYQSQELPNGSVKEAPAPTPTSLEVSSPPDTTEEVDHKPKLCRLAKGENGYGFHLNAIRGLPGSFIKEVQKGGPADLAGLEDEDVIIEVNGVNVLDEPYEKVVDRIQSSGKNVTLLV
# Columns and labels:
# Assay in all cases: G' assay
# [1] = molecular target: T1, GST-MUPP1 PDZ domain 3 (Homo sapiens …)
# [2] = molecular target: T2, GST-MUPP1 PDZ domain 9 (Homo sapiens …)
# [3] = molecular target: T3, GST-KIAA0807(S) PDZ domain 1 (Homo …)
# [4] = molecular target: T4, GST-MUPP1 PDZ domain 7 (Homo sapiens …)
# [5] = molecular target: GST-KIAA807 [GST: P08515]
# [6] = molecular target: T5, GST-FLJ00011 PDZ domain 1 (Homo sapiens …)
# [7] = molecular target: T6, GST-APXL-1 PDZ domain 1 (Homo sapiens …)
# [8] = molecular target: GST-BAI-1 Associated Protein PDZ domain 5 (Homo sapiens (Human)), Q96QZ7
# [9] = molecular target: T7, GST-MINT1 PDZ domain 2 (Mus musculus …)
# [10] = molecular target: T8, GST-KIAA0973 PDZ domain 1 (Homo sapiens …)
# [11] = molecular target: T9, GST-MINT1 PDZ domains 1, 2, Q02410
# [12] = molecular target: T10, GST-PTPL1 PDZ domain 4 (Homo sapiens …)
# [13] = molecular target: T11, GST-TIP1 PDZ domain 1 (Table 9 insert) …
# [14] = molecular target: GST-BAI-1 Associated Protein PDZ domain 6 (Homo sapiens (Human)), Q96QZ7
# [15] = molecular target: GST-DLG1 PDZ domains 1, 2 (Homo sapiens), Q12959
# [16] = molecular target: GST-BAI-1 Associated Protein PDZ domain 2 (Mus musculus (Mouse)), Q6RHR9
# [17] = molecular target: T12, GST-KIAA0380 PDZ domain 1 (Homo sapiens …)
# [18] = molecular target: GST-KIAA1634 PDZ domain 1 (Homo sapiens (Human)), Q5TCQ9
# [19] = molecular target: T13, GST-INADL PDZ domain 8 (Homo sapiens …)
# [20] = molecular target: T14, GST-NeDLG PDZ domains 1, 2, Q92796
# [21] = molecular target: GST-PSD95 PDZ domains 1, 2, 3 (Homo sapiens), P78352
# [22] = molecular target: T15, GST-KIAA1634 PDZ domain 2 (Homo sapiens …)
# [23] = molecular target: T16, GST-Outer Membrane PDZ domain 1 (Homo …)
# [24] = molecular target: T17, GST-KIAA0382 PDZ domain 1 (Canis lupus …)
# [25] = molecular target: GST-KIAA0147 PDZ domain 1 (Homo sapiens (Human)), Q14160
# [26] = molecular target: T18, GST-MUPP1 PDZ domain 10 (Homo sapiens …)
# [27] = molecular target: T19, GST-FLJ 10324 PDZ domain 1 [GST: P08515]
# [28] = molecular target: GST-BAI-1 Associated Protein PDZ domain 3 (Homo sapiens (Human)), Q96QZ7
# [29] = molecular target: T20, GST-PTPL1 PDZ domain 2 (Homo sapiens …)
# [30] = molecular target: T21, GST-AIPC PDZ domain 1 (Homo sapiens …)
# [31] = molecular target: GST-BAI-1 Associated Protein PDZ domain 4 (Homo sapiens (Human)), Q96QZ7
# [32] = molecular target: T22, GST-PDZK1 PDZ domains 2, 3, 4, Q5T2W1
# Note: key of the grades not given here.
# Sequence of GST-KIAA1634 PDZ domain 1 (Homo sapiens (Human)), Q5TCQ9 (Q5TCQ9 401-502): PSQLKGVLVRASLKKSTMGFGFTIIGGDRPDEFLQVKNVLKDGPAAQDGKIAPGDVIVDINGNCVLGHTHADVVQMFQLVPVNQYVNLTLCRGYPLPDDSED
# Sequence of GST-KIAA807 [GST: P08515] (P08515 whole entry, the tested form may be a part): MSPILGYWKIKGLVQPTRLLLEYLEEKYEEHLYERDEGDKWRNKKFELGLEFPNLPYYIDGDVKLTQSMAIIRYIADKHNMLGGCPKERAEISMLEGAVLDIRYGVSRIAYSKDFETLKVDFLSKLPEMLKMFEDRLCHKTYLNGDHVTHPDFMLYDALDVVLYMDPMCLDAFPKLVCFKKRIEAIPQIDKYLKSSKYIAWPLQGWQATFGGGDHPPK
# Sequence of GST-BAI-1 Associated Protein PDZ domain 5 (Homo sapiens (Human)), Q96QZ7 (Q96QZ7 988-1099): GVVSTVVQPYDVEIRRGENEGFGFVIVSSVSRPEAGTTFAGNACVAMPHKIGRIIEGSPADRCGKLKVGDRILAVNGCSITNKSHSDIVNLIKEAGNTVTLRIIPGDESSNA
# Sequence of GST-PSD95 PDZ domains 1, 2, 3 (Homo sapiens), P78352 (P78352 62-395): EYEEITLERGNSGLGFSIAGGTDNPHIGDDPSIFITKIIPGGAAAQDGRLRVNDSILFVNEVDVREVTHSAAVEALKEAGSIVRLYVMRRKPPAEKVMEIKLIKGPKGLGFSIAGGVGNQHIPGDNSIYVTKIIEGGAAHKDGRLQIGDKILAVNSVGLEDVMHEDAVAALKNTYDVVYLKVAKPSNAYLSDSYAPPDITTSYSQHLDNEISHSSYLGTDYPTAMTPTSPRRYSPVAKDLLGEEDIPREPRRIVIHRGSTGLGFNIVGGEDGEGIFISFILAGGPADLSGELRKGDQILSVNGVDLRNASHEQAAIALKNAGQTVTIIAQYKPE
# Sequence of GST-BAI-1 Associated Protein PDZ domain 3 (Homo sapiens (Human)), Q96QZ7 (Q96QZ7 other isoform, or with tags, fused parts or gaps): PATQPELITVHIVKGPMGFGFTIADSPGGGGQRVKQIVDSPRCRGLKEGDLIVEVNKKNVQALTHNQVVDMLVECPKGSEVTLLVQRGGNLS
# Sequence of GST-BAI-1 Associated Protein PDZ domain 2 (Mus musculus (Mouse)), Q6RHR9 (Q6RHR9 455-558): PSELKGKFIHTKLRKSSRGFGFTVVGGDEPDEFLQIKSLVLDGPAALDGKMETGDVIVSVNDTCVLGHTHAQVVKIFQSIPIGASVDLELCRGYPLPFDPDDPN
# Sequence of GST-KIAA0147 PDZ domain 1 (Homo sapiens (Human)), Q14160 (Q14160 other isoform, or with tags, fused parts or gaps): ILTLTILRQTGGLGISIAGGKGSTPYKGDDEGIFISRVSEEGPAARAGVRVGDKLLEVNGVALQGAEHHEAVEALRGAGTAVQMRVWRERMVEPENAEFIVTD
# Sequence of GST-BAI-1 Associated Protein PDZ domain 6 (Homo sapiens (Human)), Q96QZ7 (Q96QZ7 1143-1233): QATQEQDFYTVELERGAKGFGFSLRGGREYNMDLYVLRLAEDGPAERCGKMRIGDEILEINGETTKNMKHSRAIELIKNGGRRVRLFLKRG
# Sequence of GST-BAI-1 Associated Protein PDZ domain 4 (Homo sapiens (Human)), Q96QZ7 (Q96QZ7 other isoform, or with tags, fused parts or gaps): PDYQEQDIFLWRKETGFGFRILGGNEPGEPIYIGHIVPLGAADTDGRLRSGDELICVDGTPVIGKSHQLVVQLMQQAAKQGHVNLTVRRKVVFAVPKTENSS
binder,measurement,setting,value
TALRIKKTLAKMVESQDVKI (modifications not checked) [bone morphogenetic protein receptor],Classification,[1],1 A450 class
same,Classification,[2],1 A450 class
same,Classification,[3],1 A450 class
same,Classification,[4],1 A450 class
GTSDMKDLVGNIEQNEHSVI (modifications not checked) [Mannose Receptor],Classification,[3],1 A450 class
same,Classification,[5],1 A450 class
same,Classification,[6],1 A450 class
same,Classification,[7],1 A450 class
KKGTYLTDETHREVKFTSL (modifications not checked) [CD46],Classification,[8],1 A450 class
same,Classification,[9],1 A450 class
same,Classification,[10],2 A450 class
same,Classification,[11],1 A450 class
same,Classification,[3],5 A450 class
same,Classification,[5],4 A450 class
PVYIVQEMPPQSPANIYYKV (modifications not checked) [ephrin B1],Classification,[1],1 A450 class
same,Classification,[2],1 A450 class
same,Classification,[3],1 A450 class
same,Classification,[5],1 A450 class
same,Classification,[12],2 A450 class
same,Classification,[4],1 A450 class
RNIEEVYVGGKQVVPFSSSV (modifications not checked) [Nedasin (s-form)],Classification,[13],5 A450 class
same,Classification,[14],1 A450 class
same,Classification,[15],3 A450 class
same,Classification,[16],1 A450 class
same,Classification,[17],1 A450 class
same,Classification,[11],1 A450 class
same,Classification,[18],1 A450 class
same,Classification,[5],2 A450 class
same,Classification,[19],1 A450 class
same,Classification,[20],2 A450 class
same,Classification,[21],3 A450 class
ESSGTQSPKRHSGSYLVTSV (modifications not checked) [APC-adenomatous polyposis coli protein],Classification,[22],1 A450 class
same,Classification,[23],2 A450 class
same,Classification,[13],3 A450 class
same,Classification,[24],1 A450 class
same,Classification,[8],1 A450 class
same,Classification,[15],5 A450 class
same,Classification,[16],1 A450 class
same,Classification,[25],1 A450 class
same,Classification,[3],1 A450 class
same,Classification,[18],1 A450 class
same,Classification,[5],1 A450 class
same,Classification,[19],2 A450 class
same,Classification,[6],1 A450 class
same,Classification,[20],4 A450 class
same,Classification,[26],1 A450 class
same,Classification,[21],5 A450 class
SLKPGTVLPPPPYRHRNTVV (modifications not checked) [ErbB-4 receptor],Classification,[27],1 A450 class
same,Classification,[22],1 A450 class
same,Classification,[28],1 A450 class
same,Classification,[15],1 A450 class
same,Classification,[29],2 A450 class
same,Classification,[20],1 A450 class
same,Classification,[21],1 A450 class
PGQPPKVKSEFNSYSLTGYV (modifications not checked) [claudin 2],Classification,[28],1 A450 class
same,Classification,[11],2 A450 class
same,Classification,[18],1 A450 class
same,Classification,[5],1 A450 class
SSKSKSSEESQTFFGLYKL (modifications not checked) [Fas Ligand],Classification,[17],3 A450 class
same,Classification,[10],2 A450 class
same,Classification,[11],4 A450 class
same,Classification,[30],2 A450 class
same,Classification,[3],5 A450 class
same,Classification,[5],5 A450 class
same,Classification,[7],2 A450 class
EALQPEPGRKRIPLTRTTTF (modifications not checked) [somatostatin receptor 4],Classification,[8],1 A450 class
same,Classification,[15],1 A450 class
same,Classification,[31],1 A450 class
same,Classification,[11],1 A450 class
same,Classification,[5],1 A450 class
same,Classification,[32],1 A450 class
